Laboratory results reported in paper PMC5098211.

What was measured:
[1] = target: human NaV1.5 voltage-gated sodium channel (human) (UniProt Q14524)
[2] = target: human NaV1.5 voltage-gated sodium channel (human) (UniProt Q14524); remark: listed apart in the source

Chain of UniProt Q14524 (Q14524 whole entry): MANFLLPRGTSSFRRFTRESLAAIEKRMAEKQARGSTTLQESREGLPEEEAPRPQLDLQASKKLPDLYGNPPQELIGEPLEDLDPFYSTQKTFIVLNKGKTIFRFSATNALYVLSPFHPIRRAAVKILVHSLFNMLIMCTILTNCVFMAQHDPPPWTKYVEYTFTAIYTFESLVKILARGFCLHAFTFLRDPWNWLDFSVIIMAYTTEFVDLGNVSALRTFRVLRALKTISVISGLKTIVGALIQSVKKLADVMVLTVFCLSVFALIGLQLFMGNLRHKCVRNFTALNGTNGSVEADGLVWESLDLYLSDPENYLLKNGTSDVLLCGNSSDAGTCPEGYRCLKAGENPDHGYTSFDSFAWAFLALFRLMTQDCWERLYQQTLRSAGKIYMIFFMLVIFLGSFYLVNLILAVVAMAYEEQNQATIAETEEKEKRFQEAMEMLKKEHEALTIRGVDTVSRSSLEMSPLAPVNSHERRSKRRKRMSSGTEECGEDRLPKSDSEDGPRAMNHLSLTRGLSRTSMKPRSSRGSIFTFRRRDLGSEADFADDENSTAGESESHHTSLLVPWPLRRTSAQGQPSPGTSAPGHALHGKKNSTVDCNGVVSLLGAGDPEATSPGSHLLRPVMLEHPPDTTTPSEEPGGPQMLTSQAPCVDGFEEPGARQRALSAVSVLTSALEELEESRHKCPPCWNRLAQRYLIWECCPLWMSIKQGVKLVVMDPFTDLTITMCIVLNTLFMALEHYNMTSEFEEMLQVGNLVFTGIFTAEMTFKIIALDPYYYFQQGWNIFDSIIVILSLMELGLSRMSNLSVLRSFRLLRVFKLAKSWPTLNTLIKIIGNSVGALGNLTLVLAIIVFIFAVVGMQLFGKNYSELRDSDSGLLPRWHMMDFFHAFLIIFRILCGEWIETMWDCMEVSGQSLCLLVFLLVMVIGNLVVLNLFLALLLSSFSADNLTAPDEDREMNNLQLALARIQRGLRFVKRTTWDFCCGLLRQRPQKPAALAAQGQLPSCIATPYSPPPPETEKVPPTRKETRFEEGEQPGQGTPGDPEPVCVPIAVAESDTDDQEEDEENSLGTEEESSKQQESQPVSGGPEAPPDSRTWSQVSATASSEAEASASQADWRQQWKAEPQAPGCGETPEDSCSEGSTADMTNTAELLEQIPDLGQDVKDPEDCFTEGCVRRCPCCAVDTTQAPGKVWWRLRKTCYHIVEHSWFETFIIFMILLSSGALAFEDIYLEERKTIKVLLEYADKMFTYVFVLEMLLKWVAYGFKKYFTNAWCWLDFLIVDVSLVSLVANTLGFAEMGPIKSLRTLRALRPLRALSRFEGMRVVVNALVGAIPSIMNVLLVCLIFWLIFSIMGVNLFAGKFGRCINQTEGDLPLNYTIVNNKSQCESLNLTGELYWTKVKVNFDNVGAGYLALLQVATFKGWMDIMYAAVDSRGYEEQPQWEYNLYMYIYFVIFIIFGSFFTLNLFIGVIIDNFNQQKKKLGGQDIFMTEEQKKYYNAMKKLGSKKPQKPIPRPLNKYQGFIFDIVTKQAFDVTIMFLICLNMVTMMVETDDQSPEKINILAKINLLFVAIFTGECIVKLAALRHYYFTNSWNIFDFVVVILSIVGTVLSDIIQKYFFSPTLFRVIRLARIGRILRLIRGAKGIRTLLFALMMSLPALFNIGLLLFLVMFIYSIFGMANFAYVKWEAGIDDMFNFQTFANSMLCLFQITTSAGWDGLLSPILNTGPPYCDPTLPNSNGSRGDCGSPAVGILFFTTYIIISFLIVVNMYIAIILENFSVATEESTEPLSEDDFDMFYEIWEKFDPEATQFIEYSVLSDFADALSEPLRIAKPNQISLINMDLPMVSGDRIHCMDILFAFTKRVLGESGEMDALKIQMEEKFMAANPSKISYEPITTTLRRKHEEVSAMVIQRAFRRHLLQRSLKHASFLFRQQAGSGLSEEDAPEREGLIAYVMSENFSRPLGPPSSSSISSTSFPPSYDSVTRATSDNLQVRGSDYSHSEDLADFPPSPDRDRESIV

## FS50, salivary protein from the flea Xenopsylla cheopis (from UniProt A2IAD2 20-96) (natural protein)
[1]
  time constant of inhibition of NaV1.5 currents at 5 μM FS50, whole-cell patch clamp on HEK 293T cells: 15 s
[2]
  IC50 of inhibition of NaV1.5 currents, whole-cell patch clamp on HEK 293T cells, FS50 from 0.1 nM to 100 μM: 1580 nM
  reduction of the control peak amplitude of the NaV1.5 current at 10 μM FS50, whole-cell patch clamp on HEK 293T cells (at 30 μM the remaining inward current was eliminated completely): 82.5%
